This note sets out measurements from patent US20240010735A1 (EISAI R AND D MANAGEMENT, published 2024).

Test [1] concerns the target T1, human EphA4 fibronectin type III domain 1-MBP-His protein (human, UniProt P54764 205-440).
T1 construct: also called fibronectin type III domain 1 (FN1); not shown: histidine tag
As to the kind of experiment: ELISA; domain-MBP-His protein captured by anti-6-His antibody. On the procedure: (§1) Rabbit anti-6-His antibodies (Bethyl Laboratories) were coated onto the wells of a 96-well plate (Nunc). After incubating at 4° C. overnight, the wells were blocked at room temperature for 1 hour by 1% Block Ace (DS Pharma Biomedical). After washing twice with 0.02% Tween 20/PBS (Nacalai Tesque), human EphA4 extracellular region-MBP-His protein, human EphA4 ligand binding domain-MBP-His protein, human EphA4 fibronectin type III domain 1-NBP-His protein, and human EphA4 fibronectin type III domain 2-MBP-His protein (final concentration 10 nM) were seeded into the wells, and incubated at room temperature for 1 hour. After washing 3 times, antibody A (final concentration 10 nM) was supplemented to the wells, and incubated at room temperature for 1 hour. Horseradish peroxidase-labeled goat anti-mouse IgG Fcγ fragment antibody (Jackson ImmunoResearch Laboratories) was added, and incubated at room temperature for 1 hour. After washing 5 times, TMB solution (KPL) was added to the wells, and upon confirmation of modest coloring, an equal amount of quenching solution (2 N H₂SO₄, Wako Pure Chemicals) was added to the wells, and absorbance at 450 nm and 650 nm were read by a microplate reader (PerkinElmer).
as §1, with “domain 1-MBP-His” for “domain 1-NBP-His”, “antibody B” for “antibody A”, “peroxidase-labeled rabbit anti-human” for “peroxidase-labeled goat anti-mouse”, “IgG Fey” for “IgG Fcγ”, “hour.” for “hour. After washing 5 times, TMB solution (KPL) was added to the wells, and upon confirmation of modest coloring, an equal amount of quenching solution (2 N H₂SO₄, Wako Pure Chemicals) was added to the wells, and absorbance at 450 nm and 650 nm were read by a microplate reader (PerkinElmer).”
(In an ELISA, binding on a coated surface is turned into a signal by an enzyme label.)

Test [2] deals with T2, human EphA4 fibronectin type III domain 2-MBP-His protein (human, UniProt P54764 436-547).
T2 construct: also called fibronectin type III domain 2 (FN2); not shown: histidine tag
The test is described as above. On the procedure: as §1
as §1, with “domain 1-MBP-His” for “domain 1-NBP-His”, “antibody B” for “antibody A”, “peroxidase-labeled rabbit anti-human” for “peroxidase-labeled goat anti-mouse”, “IgG Fey” for “IgG Fcγ”, “hour.” for “hour. After washing 5 times, TMB solution (KPL) was added to the wells, and upon confirmation of modest coloring, an equal amount of quenching solution (2 N H₂SO₄, Wako Pure Chemicals) was added to the wells, and absorbance at 450 nm and 650 nm were read by a microplate reader (PerkinElmer).”

Test [3] has as its target T3, human EphA4 extracellular region-SEAP-His protein (human, UniProt P54764 20-547).
T3 construct: also called human EphA4 extracellular region-SEAP-His 10; not shown: secretory alkaline phosphatase (SEAP); histidine tag
As to the kind of experiment: SPR, Biacore T200; EphA4 extracellular region-SEAP-His captured on anti-His chip, antibody as analyte, 1:1 model. On the procedure: The binding affinity of antibody A against mouse and human EphA4 was determined by surface plasmon resonance (SPR method) employing Biacore T200 (GE Healthcare). First, anti-His antibodies (GE Healthcare, 28-9950-56) were fixed to a sensor chip CM5. Fixation was carried out by amine coupling method employing N-hydroxysuccinimide (NHS) and N-ethyl-N′-(3-dimethylaminopropyl) carbodiimide hydrochloride salt (EDC), and ethanolamine was employed for blocking (the sensor chip and reagents for fixation are all from GE Healthcare). This was diluted with the fixation buffer (10 mM sodium acetate, pH 4.5) to 3.5 μg/mL, and fixed onto the sensor chip according to the protocol accompanying Biacore T200. Mouse or human EphA4 extracellular region-SEAP-His 10 was diluted with the running buffer HBS-EP (GE Healthcare, BR-1001-88), and the solution was sent and captured onto the flow cell for 120 seconds (about 10 RU of captured amount). Subsequently, antibody A serially diluted to a range of 100, 50, 25, 12.5, 6.3, 3.2, 1.6, 0 nM with HBS-EP was added to the sensor chip for 120 seconds, and the binding reaction curve at the time of addition (binding phase, 120 seconds) and after completing the addition (dissociation phase, 600 seconds) was sequentially observed. Upon completion of each observation, 4 M MgCl₂ (60 seconds, Wako Pure Chemicals) was added to regenerate the sensor chip. Fitting analysis by 1:1 binding model employing the software accompanying the system, BIA evaluation software, was carried out against the binding reaction curve obtained, and the binding affinity (KD=kd/ka) against mouse and human EphA4 was calculated.
The binding affinity of antibody B obtained in Example 1 against human EphA4 was determined by surface plasmon resonance (SPR method) employing Biacore T200 (GE Healthcare). First, anti-His antibodies (GE Healthcare, 28-9950-56) were fixed to a sensor chip CMS. […]
For orientation: SPR reads the build-up and loss of mass on a sensor chip optically.

Test [4] deals with T3, human EphA4 extracellular …. In words: competition ELISA; captured human EphA4 extracellular region-SEAP-His, competitor biotinylated human EphrinB3-Fc chimera (2.3 nM).

T3 sequence (P54764 20-547): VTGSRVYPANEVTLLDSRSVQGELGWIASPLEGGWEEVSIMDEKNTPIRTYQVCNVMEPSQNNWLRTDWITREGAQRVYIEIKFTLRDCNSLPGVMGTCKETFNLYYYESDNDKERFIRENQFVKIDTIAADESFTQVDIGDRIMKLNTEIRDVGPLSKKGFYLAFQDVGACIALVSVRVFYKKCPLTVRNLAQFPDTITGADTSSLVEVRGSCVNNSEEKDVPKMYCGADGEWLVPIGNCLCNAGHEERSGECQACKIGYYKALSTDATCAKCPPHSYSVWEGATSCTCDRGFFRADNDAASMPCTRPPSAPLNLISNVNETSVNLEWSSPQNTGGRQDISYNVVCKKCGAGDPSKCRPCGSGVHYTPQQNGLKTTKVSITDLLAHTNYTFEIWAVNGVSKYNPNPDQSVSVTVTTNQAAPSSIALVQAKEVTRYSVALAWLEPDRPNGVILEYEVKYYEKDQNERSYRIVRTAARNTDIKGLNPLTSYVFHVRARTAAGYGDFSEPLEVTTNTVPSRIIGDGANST
T2 sequence (P54764 436-547 limits assumed): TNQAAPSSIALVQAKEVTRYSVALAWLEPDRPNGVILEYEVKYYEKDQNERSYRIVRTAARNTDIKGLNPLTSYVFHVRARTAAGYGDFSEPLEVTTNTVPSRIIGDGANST
T1 sequence (P54764 205-440 limits assumed): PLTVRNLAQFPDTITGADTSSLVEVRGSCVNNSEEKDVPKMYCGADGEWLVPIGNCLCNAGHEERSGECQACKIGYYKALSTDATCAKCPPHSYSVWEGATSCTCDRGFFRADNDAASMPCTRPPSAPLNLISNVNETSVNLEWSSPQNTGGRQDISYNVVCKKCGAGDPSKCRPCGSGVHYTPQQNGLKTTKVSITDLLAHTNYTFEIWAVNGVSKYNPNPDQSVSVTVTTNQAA

B1: humanized anti-EphA4 monoclonal antibody (antibody B) (antibody, human IgG2, V domains shown)
VH: QVQLVESGGGVVQPGRSLRLSCAVSGFSLTRFGVHWVRQAPGKGLEWVAVIWRGGSTDYNAAFMSRLTISKDNSKNTVYLQMNSLRAEDTAVYYCAKESLFGVYYDYGYYSMDYWGQGTTVTVSS
VL: DIQMTQSPSSLSASVGDRVTITCRASQEISGYLSWLQQKPGKAPKRLIYAASTLDSGVPSRFSGSRSGTEYTLTISSLQPEDFATYYCLQYASYPLTFGGGTKVEIKR
notes: expressed in Expi293F cells; also called humanized antibody of antibody A; HK2-42 / L1-8
In general, Kd refers to the constant that tells how readily two partners part at equilibrium. Usually IC50 stands for the concentration needed to halve the response being measured. Read a high IC50 as a need for much substance. For B1, the binding result in test [1] and in test [2] was “no binding (tested: 10 nM)” each time. The Kd in test [3] is 1.34 nM. Also, the IC50 in test [4] is roughly 1.6 nM.

B2: mouse anti-EphA4 monoclonal antibody (antibody A) (antibody, mouse IgG1, kappa, V domains shown)
VH: QVQLKQSGPSLVQPSQSLSITCTVSGFSLTRYGVHWVRQSPGKGLEWLGVIWRGGSTDYNAAFMSRLSITKDNSKSQVFFKMNSLQADDTAIYYCAKESLFGVYYDYGYYSMDYWGQGTSVTVSS
VL: DIQMTQSPSSLSASLGERVSLTCRASQEISGYLSWLQQKPDGTIKRLIYAASTLDSGVPKRFSGSRSGSDYSLTISSLESEDFADYYCLQYASYPLTFGAGTKLELKR
notes: purified from hybridoma supernatant
For B2, the binding result in test [1] and in test [2] was “no binding (tested: 10 nM)” in each case. Besides, the affinity in test [3], expressed as Kd, was 1.19 nM. Also, in test [4], the IC50 is roughly 1.4 nM.
